B1: Fanconi anemia group G protein (Homo sapiens), O15287 (parent)
chain: MSRQTTSVGSSCLDLWREKNDRLVRQAKVAQNSGLTLRRQQLAQDALEGLRGLLHSLQGLPAAVPVLPLELTVTCNFIILRASLAQGFTEDQAQDIQRSLERVLETQEQQGPRLEQGLRELWDSVLRASCLLPELLSALHRLVGLQAALWLSADRLGDLALLLETLNGSQSGASKDLLLLLKTWSPPAEELDAPLTLQDAQGLKDVLLTAFAYRQGLQELITGNPDKALSSLHEAASGLCPRPVLVQVYTALGSCHRKMGNPQRALLYLVAALKEGSAWGPPLLEASRLYQQLGDTTAELESLELLVEALNVPCSSKAPQFLIEVELLLPPPDLASPLHCGTQSQTKHILASRCLQTGRAGDAAEHYLDLLALLLDSSEPRFSPPPSPPGPCMPEVFLEAAVALIQAGRAQDALTLCEELLSRTSSLLPKMSRLWEDARKGTKELPYCPLWVSATHLLQGQAWVQLGAQKVAISEFSRCLELLFRATPEEKEQGAAFNCEQGCKSDAALQQLRAAALISRGLEWVASGQDTKALQDFLLSVQMCPGNRDTYFHLLQTLKRLDRRDEATALWWRLEAQTKGSHEDALWSLPLYLESYLSWIRPSDRDAFLEEFRTSLPKSCDL
B2: Dickkopf-related protein 1 (Homo sapiens), O94907 (parent)
chain: MMALGAAGATRVFVAMVAAALGGHPLLGVSATLNSVLNSNAIKNLPPPLGGAAGHPGSAVSAAPGILYPGGNKYQTIDNYQPYPCAEDEECGTDEYCASPTRGGDAGVQICLACRKRRKRCMRHAMCCPGNYCKNGICVSSDQNHFRGEIEETITESFGNDHSTLDGYSRRTTLSSKMYHTKGQEGSVCLRSSDCASGLCCARHFWSKICKPVLKEGQVCTKHRRKGSHGLEIFQRCYCGEGLSCRIQKDHHQASNSSRLHTCQRH
B3: Four and a half LIM domains protein 2 (Homo sapiens), Q14192 (parent)
chain: MTERFDCHHCNESLFGKKYILREESPYCVVCFETLFANTCEECGKPIGCDCKDLSYKDRHWHEACFHCSQCRNSLVDKPFAAKEDQLLCTDCYSNEYSSKCQECKKTIMPGTRKMEYKGSSWHETCFICHRCQQPIGTKSFIPKDNQNFCVPCYEKQHAMQCVQCKKPITTGGVTYREQPWHKECFVCTACRKQLSGQRFTARDDFAYCLNCFCDLYAKKCAGCTNPISGLGGTKYISFEERQWHNDCFNCKKCSLSLVGRGFLTERDDILCPDCGKDI
partner: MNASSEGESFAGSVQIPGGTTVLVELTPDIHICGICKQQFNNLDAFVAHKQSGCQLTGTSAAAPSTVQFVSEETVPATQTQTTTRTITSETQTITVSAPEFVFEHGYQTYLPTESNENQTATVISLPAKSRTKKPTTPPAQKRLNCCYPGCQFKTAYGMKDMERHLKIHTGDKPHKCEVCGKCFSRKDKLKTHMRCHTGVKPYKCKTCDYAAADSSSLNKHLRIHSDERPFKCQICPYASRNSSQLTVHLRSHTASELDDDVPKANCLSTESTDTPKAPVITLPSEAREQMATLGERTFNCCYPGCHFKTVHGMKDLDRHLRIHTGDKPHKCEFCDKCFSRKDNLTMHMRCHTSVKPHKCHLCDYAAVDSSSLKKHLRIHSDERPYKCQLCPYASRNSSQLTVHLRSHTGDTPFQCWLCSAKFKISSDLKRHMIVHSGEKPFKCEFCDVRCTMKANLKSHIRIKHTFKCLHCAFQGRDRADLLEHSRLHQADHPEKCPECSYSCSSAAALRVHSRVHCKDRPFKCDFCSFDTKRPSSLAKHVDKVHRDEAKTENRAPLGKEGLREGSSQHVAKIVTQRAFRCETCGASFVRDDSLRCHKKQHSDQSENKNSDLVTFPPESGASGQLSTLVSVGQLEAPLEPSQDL
B4: Centrosomal protein POC5 (Homo sapiens), Q8NA72 (parent)
chain: MSSDEEKYSLPVVQNDSSRGSSVSSNLQEEYEELLHYAIVTPNIEPCASQSSHPKGELVPDVRISTIHDILHSQGNNSEVRETAIEVGKGCDFHISSHSKTDESSPVLSPRKPSHPVMDFFSSHLLADSSSPATNSSHTDAHEILVSDFLVSDENLQKMENVLDLWSSGLKTNIISELSKWRLNFIDWHRMEMRKEKEKHAAHLKQLCNQINELKELQKTFEISIGRKDEVISSLSHAIGKQKEKIELMRTFFHWRIGHVRARQDVYEGKLADQYYQRTLLKKVWKVWRSVVQKQWKDVVERACQARAEEVCIQISNDYEAKVAMLSGALENAKAEIQRMQHEKEHFEDSMKKAFMRGVCALNLEAMTIFQNRNDAGIDSTNNKKEEYGPGVQGKEHSAHLDPSAPPMPLPVTSPLLPSPPAAVGGASATAVPSAASMTSTRAASASSVHVPVSALGAGSAATAASEEMYVPRVVTSAQQKAGRTITARITGRCDFASKNRISSSLAIMGVSPPMSSVVVEKHHPVTVQTIPQATAAKYPRTIHPESSTSASRSLGTRSAHTQSLTSVHSIKVVD

Variants of: B1
Details: with mbip1_human MBIP
With T297I the “effect of a mutation on the interaction” value was “with no effect”.

Variants of: B1
Details: with KRT15, P19012
KRT15, P19012, sequence (P19012 whole entry): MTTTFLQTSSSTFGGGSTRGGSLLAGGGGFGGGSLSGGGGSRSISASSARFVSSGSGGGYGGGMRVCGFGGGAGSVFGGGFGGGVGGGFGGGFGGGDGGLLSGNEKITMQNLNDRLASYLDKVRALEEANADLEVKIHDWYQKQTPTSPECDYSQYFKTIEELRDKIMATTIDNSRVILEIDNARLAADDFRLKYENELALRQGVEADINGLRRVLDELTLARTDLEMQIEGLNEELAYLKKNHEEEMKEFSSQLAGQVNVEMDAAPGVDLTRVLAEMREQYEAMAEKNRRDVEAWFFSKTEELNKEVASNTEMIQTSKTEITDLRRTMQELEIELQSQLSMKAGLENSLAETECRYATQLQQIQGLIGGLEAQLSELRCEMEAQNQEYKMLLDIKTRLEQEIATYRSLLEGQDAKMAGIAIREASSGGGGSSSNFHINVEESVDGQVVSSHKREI
For T297I, the “effect of a mutation on the interaction” value was “with no effect”.

Variants of: B1
Details: with cenpr_human ITGB3BP
With T297I the “effect of a mutation on the interaction” value was “with no effect”.

Variants of: B1
Details: with KRT19, P08727
KRT19, P08727, sequence (P08727 whole entry): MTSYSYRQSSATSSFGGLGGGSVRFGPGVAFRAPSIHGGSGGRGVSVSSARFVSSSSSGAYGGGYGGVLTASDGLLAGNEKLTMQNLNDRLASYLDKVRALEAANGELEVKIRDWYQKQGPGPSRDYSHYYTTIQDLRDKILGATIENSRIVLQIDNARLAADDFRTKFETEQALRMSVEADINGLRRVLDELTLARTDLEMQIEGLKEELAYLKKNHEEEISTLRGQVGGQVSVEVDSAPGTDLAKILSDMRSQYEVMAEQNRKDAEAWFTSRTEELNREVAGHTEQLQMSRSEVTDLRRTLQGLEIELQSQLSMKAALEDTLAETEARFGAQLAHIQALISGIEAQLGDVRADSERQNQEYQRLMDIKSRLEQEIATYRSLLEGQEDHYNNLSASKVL
In the case of T297I, the “effect of a mutation on the interaction” value is reported as “with no effect”.

Variants of: B2
Details: with kr101_human KRTAP10-1, P60331
kr101_human KRTAP10-1, P60331, sequence (P60331 whole entry): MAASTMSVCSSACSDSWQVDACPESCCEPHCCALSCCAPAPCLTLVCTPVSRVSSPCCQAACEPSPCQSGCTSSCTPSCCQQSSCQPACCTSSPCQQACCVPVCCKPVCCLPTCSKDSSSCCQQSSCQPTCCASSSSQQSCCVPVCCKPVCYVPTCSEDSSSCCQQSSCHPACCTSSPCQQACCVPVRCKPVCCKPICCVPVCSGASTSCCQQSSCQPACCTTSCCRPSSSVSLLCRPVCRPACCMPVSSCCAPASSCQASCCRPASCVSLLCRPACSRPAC
With S207Y the “effect of a mutation on the interaction” value was “with no effect”.

Variants of: B2
Details: with mdfi_human MDFI
S207Y was tested, and the “effect of a mutation on the interaction” value was “with no effect”.

Variants of: B3
Details: with zf64b_human ZFP64, Q9NTW7
For A37S, the “effect of a mutation on the interaction” value was “with no effect”.
N95K was tested, and the “effect of a mutation on the interaction” value was “with no effect”.

Variants of: B4
Details: with cetn1_human CETN1, Q12798
cetn1_human CETN1, Q12798, sequence (Q12798 whole entry): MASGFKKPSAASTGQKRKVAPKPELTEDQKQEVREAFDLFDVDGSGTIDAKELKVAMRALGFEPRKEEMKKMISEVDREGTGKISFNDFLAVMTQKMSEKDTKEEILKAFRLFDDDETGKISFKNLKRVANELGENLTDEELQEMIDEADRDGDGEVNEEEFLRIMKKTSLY
In the case of H36R, the “effect of a mutation on the interaction” value is reported as “with no effect”.
In the case of I175M, the “effect of a mutation on the interaction” value is reported as “with no effect”.
In the case of D148N, the “effect of a mutation on the interaction” value is reported as “with no effect”.

Variants of: B4
Details: with cetn2_human CETN2, P41208
cetn2_human CETN2, P41208, sequence (P41208 whole entry): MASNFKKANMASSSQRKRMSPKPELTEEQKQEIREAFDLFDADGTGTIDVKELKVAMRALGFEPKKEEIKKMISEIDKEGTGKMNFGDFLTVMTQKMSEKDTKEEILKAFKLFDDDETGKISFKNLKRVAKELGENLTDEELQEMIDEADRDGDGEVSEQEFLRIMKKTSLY
With H36R the “effect of a mutation on the interaction” value was “with no effect”.

Reference: IntAct's records for PubMed 31515488
